The values below come from the supplement of paper PMC10567573.

Sequences and labels used below:
B1: SCNN1D (parent)
chain: FLGHHSFSVRPGTEATISIREDEV
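Further: lentivirally expressed fusions sorted by FACS into six bins by GFP to DsRed ratio, PSI derived from sequencing read proportions per bin multiplied by bin number.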

The series covers variants of B1. Description: protein stability index of a GFP-peptide fusion (GPS, HEK-293T) (PSI 1-6); higher = more stable. The note with it: c terminus: a fixed tail appended.
In the case of FLGHHSFSVRPGYEATISIREDEV [T13Y], the protein stability index was found to be 1.36. In the case of FLGHHSFSVRPGNEATISIREDEV [T13N], the protein stability index is 1.49. For the variant FLGHHSFSVRPGIEATISIREDEV [T13I], the protein stability index is 1.44. With FLGHHSFSVRPGLEATISIREDEV [T13L], the protein stability index is 2.71. For the variant FLGHHSFSVRPGVEATISIREDEV [T13V], the protein stability index was found to be 1.49.

As for FLGHKSFSVRPGTEATISIREDEV [H5K], the protein stability index turned out to be 3.06. Then FLGHGSFSVRPGTEATISIREDEV [H5G], with 2.3; and FLGHLSFSVRPGTEATISIREDEV [H5L], with 2.28. Then FLGHNSFSVRPGTEATISIREDEV [H5N], with 1.71; and FLGHPSFSVRPGTEATISIREDEV [H5P], with 2.13. The same measure for FLGHSSFSVRPGTEATISIREDEV [H5S]: 1.75; for FLGHWSFSVRPGTEATISIREDEV [H5W]: 3.19; for FLGHISFSVRPGTEATISIREDEV [H5I]: 1.64. As to FLGHMSFSVRPGTEATISIREDEV [H5M], the protein stability index worked out at 2.33. Then FLGHQSFSVRPGTEATISIREDEV [H5Q], with 1.25; and FLGHESFSVRPGTEATISIREDEV [H5E], with 1.78; and FLGHRSFSVRPGTEATISIREDEV [H5R], with 2.55. The same measure for FLGHYSFSVRPGTEATISIREDEV [H5Y]: 1.89. Consider FLGHDSFSVRPGTEATISIREDEV [H5D], for which the protein stability index was determined as 2.02. Then FLGHVSFSVRPGTEATISIREDEV [H5V], with 1.33; and FLGHTSFSVRPGTEATISIREDEV [H5T], with 1.54.

Turning to FLGHHHFSVRPGTEATISIREDEV [S6H], the protein stability index amounted to 2.08. The same measure for FLGHHCFSVRPGTEATISIREDEV [S6C]: 2.25; for FLGHHMFSVRPGTEATISIREDEV [S6M]: 2.96.

For the variant FLGHHFFSVRPGTEATISIREDEV [S6F], the protein stability index is 2.92.

On to FLGHHDFSVRPGTEATISIREDEV [S6D], for which the protein stability index was found to be 2.13. In the case of FLGHHYFSVRPGTEATISIREDEV [S6Y], the protein stability index came to 2.88. Consider FLGHHTFSVRPGTEATISIREDEV [S6T], for which the protein stability index stood at 2.02. In the case of FLGHHQFSVRPGTEATISIREDEV [S6Q], the protein stability index is 1.76.

FLGHHVFSVRPGTEATISIREDEV [S6V]: the protein stability index came to 1.88. The same measure for FLGHHEFSVRPGTEATISIREDEV [S6E]: 2.73; for FLGHHAFSVRPGTEATISIREDEV [S6A]: 3.88; for FLGHHPFSVRPGTEATISIREDEV [S6P]: 1.46.

For the variant FLGHHWFSVRPGTEATISIREDEV [S6W], the protein stability index was 1.85. The same measure for FLGHHNFSVRPGTEATISIREDEV [S6N]: 2.08; for FLGHHRFSVRPGTEATISIREDEV [S6R]: 2.19; for FLGHHGFSVRPGTEATISIREDEV [S6G]: 1.16. The same measure for FLGHHKFSVRPGTEATISIREDEV [S6K]: 1.7; for FLGHHSFSVRYGTEATISIREDEV [P11Y]: 1.99. The same measure for FLGHHSFSVRDGTEATISIREDEV [P11D]: 1.88; for FLGHHSFSVRVGTEATISIREDEV [P11V]: 1.53. With FLGHHSFSVRWGTEATISIREDEV [P11W], the protein stability index stood at 1.97. Then FLGHHSFSVRFGTEATISIREDEV [P11F], with 1.47; and FLGHHSFSVRAGTEATISIREDEV [P11A], with 1.53.

FLGHHSFSVRQGTEATISIREDEV [P11Q]: the protein stability index turned out to be 1.99. The same measure for FLGHHSFSVRRGTEATISIREDEV [P11R]: 2.02; for FLGHHSFSVRGGTEATISIREDEV [P11G]: 1.64. The same measure for FLGHHSFSVREGTEATISIREDEV [P11E]: 2.14; for FLGHHSFSVRLGTEATISIREDEV [P11L]: 1.82. Then FLGHHSFSVRMGTEATISIREDEV [P11M], with 1.25; and FLGHHSFSVRTGTEATISIREDEV [P11T], with 1.59; and FLGHHSFSVRHGTEATISIREDEV [P11H], with 1.7.

Take FLGHHSFSVRKGTEATISIREDEV [P11K]: the protein stability index came out at 1.93.

As for FLGHHSFSVRNGTEATISIREDEV [P11N], the protein stability index was determined as 1.98. In the case of FLGHHSFSVRSGTEATISIREDEV [P11S], the protein stability index amounted to 1.72. The same measure for FLGHHSFSVRIGTEATISIREDEV [P11I]: 2.14. In the case of FLGHHSISVRPGTEATISIREDEV [F7I], the protein stability index worked out at 3.65. Then FLGHHSESVRPGTEATISIREDEV [F7E], with 4.81.

Take FLGHHSWSVRPGTEATISIREDEV [F7W]: the protein stability index is 3.24. Then FLGHHSMSVRPGTEATISIREDEV [F7M], with 4.18. The same measure for FLGHHSASVRPGTEATISIREDEV [F7A]: 4.31; for FLGHHSPSVRPGTEATISIREDEV [F7P]: 4.44. The same measure for FLGHHSYSVRPGTEATISIREDEV [F7Y]: 2.38. In the case of FLGHHSRSVRPGTEATISIREDEV [F7R], the protein stability index came to 3.94. Then FLGHHSGSVRPGTEATISIREDEV [F7G], with 4.43. Then FLGHHSCSVRPGTEATISIREDEV [F7C], with 3.6; and FLGHHSNSVRPGTEATISIREDEV [F7N], with 4.38. With FLGHHSSSVRPGTEATISIREDEV [F7S], the protein stability index is 4.1. The same measure for FLGHHSDSVRPGTEATISIREDEV [F7D]: 4.41; for FLGHHSTSVRPGTEATISIREDEV [F7T]: 4.81. Then FLGHHSHSVRPGTEATISIREDEV [F7H], with 4.17; and FLGHHSKSVRPGTEATISIREDEV [F7K], with 4.54. Regarding FLGHHSVSVRPGTEATISIREDEV [F7V], the protein stability index amounted to 3.88. Then FLGHHSLSVRPGTEATISIREDEV [F7L], with 4.01. Then FLGHHSQSVRPGTEATISIREDEV [F7Q], with 3.98. Then FLGHHSFSVAPGTEATISIREDEV [R10A], with 1.56. For FLGHHSFSVIPGTEATISIREDEV [R10I], the protein stability index came to 1.9. Take FLGHHSFSVMPGTEATISIREDEV [R10M]: the protein stability index was 2.03. The same measure for FLGHHSFSVDPGTEATISIREDEV [R10D]: 2.77. The same measure for FLGHHSFSVKPGTEATISIREDEV [R10K]: 2.33; for FLGHHSFSVNPGTEATISIREDEV [R10N]: 1.53; for FLGHHSFSVEPGTEATISIREDEV [R10E]: 2.94. Then FLGHHSFSVWPGTEATISIREDEV [R10W], with 1.63. For the variant FLGHHSFSVFPGTEATISIREDEV [R10F], the protein stability index was 1.66. Then FLGHHSFSVCPGTEATISIREDEV [R10C], with 2.52. For FLGHHSFSVYPGTEATISIREDEV [R10Y], the protein stability index is 1.63. Then FLGHHSFSVPPGTEATISIREDEV [R10P], with 2.11.

In the case of FLGHHSFSVTPGTEATISIREDEV [R10T], the protein stability index was determined as 1.92.

Regarding FLGHHSFSVSPGTEATISIREDEV [R10S], the protein stability index is 2.35.

Consider FLGHHSFSVVPGTEATISIREDEV [R10V], for which the protein stability index was 2.41. The same measure for FLGHHSFSVGPGTEATISIREDEV [R10G]: 2.04.

For the variant FLGHHSFSVQPGTEATISIREDEV [R10Q], the protein stability index was determined as 2.49. The same measure for FLGHHSFSVLPGTEATISIREDEV [R10L]: 1.41; for FLGHHSFSVHPGTEATISIREDEV [R10H]: 2.3.
